Experimental findings from the DeepSol protein solubility set are described below.

This data set can be described thus: soluble on expression in E. coli; label from the status in PepcDB or PDB records.
For “MLSRLTSRNVLLARNVATAATQERQKIKVDNPVVDLDGDEMTRIIWKEIKNKLILPYLDLDIKYYDLGLEYRDETNDQVTIDAAHAILEHSVGIKCATITPDEARIKEFNLKKMWLSPNGTIRNILGGTVFREPILCKNIPRLVPGWTQPITIGRHAFGDQYKCTDLVIPSGSTLQLLVNKPDGSKDVHNVYDFKKSGGVGLAMYNTDESIKGFAHSCFQYALMKQWPLYLSTKNTILKKYDGRFKDIFQDIYEKKYEADFKNNKIWYEHRLIDDQVAQALKSSGGFVWACKNYDGDVQSDIVAQGYGSLGLMSSVLMCPDGKTIEAEAAHGTVTRHYREHQKGNSTSTNPIASIFAWTRGLHHRGVLDNNEALKTFSLTLEKACIDTVEEGKMTKDLSICIHGTKKGTEKGAYLITEDFLSAIDTKMAELMRQD”, the “soluble on expression in E. coli” value is on record as “not soluble”. With “MSLLASLGGLVSCAAKVHFKEEGNAMNELIANHDFDFRQLVTAAEGQPVTDTFQIAKAFGKRHADVLRALKNCHCSEDFRRAHFCVSEKINNLGIFDKKQIYYRMDFSGFVMLVMGFNGAKADAVKEAYINAFNWMSAELRKYSESYEAERNAIMLEYMKEKDVASMSGRLLNRWGKIKKPQLLARIGRLEQHGQTVIPGLTNEGHHHHHH” the entry was “not soluble”; with “MAHHHHHHMGTLEAQTQGPGSMFELSDLPYEGLEPYISSHLLDRHYNGHHKTYVDVLNKLVVGTEFEGLGNESLGDIVVKAHNSGSAGRAIFNNAAQIWNHDFYWQSMKPNGGGNPPEKLREMIEHSFGSVEGFNNAFTTSGLGQFGSGWVWLVYDEDAKALKVVSTANADSPLLTQGQLPLATMDVWEHAYYLDYLNLRKKYIDVFLEHLLNWDFVLGRLEDAGVL”, “soluble”; with “MSIKIGLLGFGTVASGMPFLLKENKDKITAASGTKLEIAKVLVKDDDEKKRLLAAGNDFNFVTNVDDILSDDDIAIVVELMGRIEPAKTFITKALEAGKHVVSANKDLIATHGKELIRLAQDKGVAFYYEAAVAGGIPILRTLANSLTSDKVTRILGVLNGTSNFMMTKMVDEGWTYEAALKKAQELGYAESDPTNDVEGIDAAYKAVILSQFGFGMTIDFDQVVHQGISSITPDDVAMAQQLGYVIKLVGSVEETPSGIFAEVSPTFLPKSHPLASVNDVMNAVFVESIGIGESMYYGPGAGQKPTATSVVADVIRIARRIKDGNVGKCFNEFIRETKIAHPDDVKSHYYFAINTADEKGKMLRLAEIFNSEDISFEQVLQQKANGEQARVVIITHSLSKSQLVNVTEKLQAVADFKLLNTFKVLGE”, “not soluble”.

As to “MEEVVRFECRDSNLEIYVVQPGERLSIFGSCSFLCLAGNASINDYNLPAVSCESSNFMKISAPQRMDVPAILQVFKSGPSYKHARLKFRLKEVAPKNYEKIMEMIGTTEPSVFIFSKILDFAEETVSGVVSNFLIHSSIQKQIILPPHFFISRDDFIIYPQQQEAQLKSQMNRLNKLRNDGQRTTILPIGHKGAGKSNLMRSLVNRCLSNGYEHVYVLDCDIGQSEFTPCGCLSLTKVTSPILGKPHGHQRASFENSFFYGDITVRDINLYMDIFERLFNKFKVISEPGSVCIINSMGWVTDEGAEILDGITRVTDPELFVEIFRDQTEARYQFLNRAEHNIVEIFANNSIGVIGLPPQKRLPAALIRELTIVGYFSSRLPRPSLASFPKVAPYKLRFENVTICVPVDLLVEDSHVFSSINTQIMALCINNTDLKPRKLYGKDDLPSICVIDGNSPALQCIGFGIIRGVSVEERIIFVVTPVDLLKLEEPPVLVRGMRIQTPTMFYTADPYNRCPYVLNDLEQGNSDNTLDGLYQPSVNTTQFKRSRRF”, the “soluble on expression in E. coli” value is “not soluble”.

In the case of “MVLETPVCSPIDKESSSDDVQLNKPPKKKRKLDVVYPPRDNTSSSSDVKPKVPGYCGVKAIGCNRSDELLAEVALHSYNSQTGTNLELMTVTQVMLQSVAHINYHMILDAFDPANNSLSSIEICLWDAAVKNNEKLRLVTTFCSLEGSGDKGSQWDPNGVDVLYTGVMPKWLDDGALSGSEKLHYYEVNDSDLQENKWLHLYAQVGAYSKWDLGMVKHFPLEIKKVVVQTMEDDIESNLKLKSSNAIFYITFTTSGGVECACIIRQTRNGRPQHMCLEINNVEMDK”, the “soluble on expression in E. coli” value is listed as “soluble”. With “MLRAKVRRIALANQKGGVGKTTTAINLAAYLARLGKRVLLVDLDPQGNATSGLGVRAERGVYHLLQGEPLEGLVHPVDGFHLLPATPDLVGATVELAGAPTALREALRDEGYDLVLLDAPPSLSPLTLNALAAAEGVVVPVQAEYYALEGVAGLLATLEEVRAGLNPRLRLLGILVTMYDGRTLLAQQVEAQLRAHFGEKVFWTVIPRNVRLAEAPSFGKTIAQHAPTSPGAHAYRRLAEEVMARVQEAGSHHHHHH” the entry was “soluble”. With “MGSDKIHHHHHHMEGKVDVLLTWLKKSDKFYIAPNISICESPETGRGIVLSHGSIRKNDIIVSVPSSKQLNFHTILYHISKFNKELNIPGITIDRKPINYEDNIIEAENKAWADPRYGLYSELSKEFLLSLSSFQLVSFYILVENFLLPKWTHNEIYSDWKPFFDVWPSMEELRSIPAIWNCDPNSRYHSLIEYLPAASRKHMARISGLVREDWETISEVVLKWNEIYGSLSCTKNSDKFTSDELFSLFVHVYFIINSRCLYAKIPLKIEDSPSNFTLVPYVDFMNHICESDLHCYPQLSPQLRSEGENIIGIGQFTIRCGDHLYDNINEELFLNYGAHSNDFLLNEYGFVVDGNKWNYLDISDEIIELIDDDKKEVKTFLLEHDYWGDYTINETDISYRIFVALNYYVTRDERRVRKFIEGYISEDYFKPKISSVLKELLVSLTAKYTKTLSELTEKVSNLENNLCLQNLITIYKGYIKILTQHLQDLQS”, the “soluble on expression in E. coli” value was “not soluble”. As to “TTPIVHLKGDANTLKCLRYRFKKHCTLYTAVSSTWHWTGHNVKHKSAIVTLTYDSEWQRDQFLSQVKIPKTITVSTGFMSIGGGTGGGSGGGS”, the “soluble on expression in E. coli” value was “soluble”. The same measure for “MLSKKLHDALNDQMNFEFYSAHAYMAMAAYCTAESYDGFANFFLVQAEEERFHAMKLYNYINDRGERAIITGFDNPNNEYESVLNAFEVALEHEREVTKRIYNLSDIAWDEREHATITFLKWFVDEQVEEEASFDSIIQKLKRITSDSNALFMLDAELEKRTFTPPAE”: “not soluble”. As to “MTTFSHSSTTPSVSVTTASGNNQSQLVATPVPDEQRISFWPQHFGLIPQWVTLEPRVFGWMDRLCEDYCGGIWNLYTLNNGGAFIAPEPDEDDGETWILFNAMNGNRAEMSPEAAGIAACLMTYSHHACRTECYAMTVHYYRLRDYALQHPECSAIMRIID”, the “soluble on expression in E. coli” value is reported as “not soluble”. The same measure for “MGSDKIHHHHHHMSIKSDKWIRRMSEEFGMIDPFEPNQIKEADGQRIISYGTSSYGYDIRCANEFKIFTNINSTIVDPKNFDPKNFVTVEDDCCIIPPNSFALARTVEYFRIPRNVLTVCLGKSTYARCGIIVNVTPFEPEWEGYVTLEFSNTTPLPAKIYAGEGVAQVLFFESDEVCETSYKDRNGKYMGQTGVTLPKA”: “not soluble”; for “MGSDKIHHHHHHMIDFHVHTTFSDSTMTPAVAVRHAKMAGYRAVALTDHADHANMDLILRQTLPLARKYSLYAGIEVFAGVELTHVPPALIPEAVREARAMGAQLVLVHGETISDAVETGTNLAAIEGGVDILAHPGLVSDEDAAYAAERGVRFEITTRPGHALTNGHVAMAARRHGVRCVINNDAHHSRDFVNPDHRLAVALGAGLTTAEVTAAEAESRTLLGRLLREVR”: “not soluble”.

In the case of “MGSDKIHHHHHHVTTVTRSFDDAWRRWIAENLLLDAPPSALHGALLGHGFDAADVTREIEAALASPYFHGAARLRNRLRKREWILSVYSELNRMRAASGVIERCERLSRDAFFEQYYFQNRPVIITGAFDFWPACSRWNWDYLRRQCGDCEVEVQFGRESDANYEINQPRLTRMMRFADYVDLVEQRGPTNDFYMTANNTSRNRAALAALWSDVPPIDAYLDAASPDTGFFWMGPAGTKTPFHHDLTNNFMAQVIGRKHIKLVPLSDTPYMANHLHCYSRVDGGAIDFDSFPSMRQAQLIECTLAPGELLFLPVGWWHYVEGIDASVTMTFTNFLRSNDFSRRYDTYHEL”, the “soluble on expression in E. coli” value is “not soluble”.
